# Data as given in paper PMC5071832, “Molecular basis for catalysis and substrate-mediated cellular stabilization of human tryptophan 2,3-dioxygenase” (Scientific Reports, 2016).
# Biological target: the molecule itself
# Assay: crystal structure; ferrous hTDO (45 mg/ml) with 10 mM L-Trp, under-oil microbatch, anaerobic, 18 °C; precipitant 50 mM sodium citrate pH 5.6, 5% PEG 3350, 2% Tacsimate pH 5; one crystal mounted anaerobically, one soaked overnight in O2-saturated solution; four subunits (A-D) form the tetramer
protein,measurement,value
"human tryptophan 2,3-dioxygenase (enzyme, tryptophan 2,3-dioxygenase, human; Heme protein, crystallized in the ferrous state with L-Trp (and O2 or NFK); The construct lacks the N-terminal residues up to at least K17, and K37 lies in a disordered region; also called hTDO; TDO; source: recombinant, purified; oxidized with potassium ferricyanide, G25 column) LPVEGSEEDKSQTGVNRASKGGLIYGNYLHLEKVLNAQELQSETKGNKIHDEHLFIITHQAYELWFKQILWELDSVREIFQNGHVRDERNMLKVVSRMHRVSVILKLLVQQFSILETMTALDFNDFREYLSPASGFQSLQFRLLENKIGVLQNMRVPYNRRHYRDNFKGEENELLLKSEQEKTLLELVEAWLERTPGLEPHGFNFWGKLEKNITRGLEEEFIRIQAKEESEEKEEQVAEFQKQKEVLLSLFDEKRHEHLLSKGERRLSYRALQGALMIYFYREEPRFQVPFQLLTSLMDIDSLMTKWRYNHVCMVHRMLGSKAGTGGSSGYHYLRSTVSDRYKVFVDLFNLSTYLIPRHWIPKMNPTIHKFL",stoichiometry N,4
